The values below come from article PMC5714204.

Experiment in all cases: fluorescence polarization
For orientation: Fluorescence polarisation rises when a labelled molecule tumbles more slowly, as on binding a larger partner.

One data set addresses T1, RNase R 1H (Escherichia coli BL21(DE3), UniProt P21499 1-523+=AQPTGFLDSRIRRFQS+545-813, internal_change).
T1 sequence: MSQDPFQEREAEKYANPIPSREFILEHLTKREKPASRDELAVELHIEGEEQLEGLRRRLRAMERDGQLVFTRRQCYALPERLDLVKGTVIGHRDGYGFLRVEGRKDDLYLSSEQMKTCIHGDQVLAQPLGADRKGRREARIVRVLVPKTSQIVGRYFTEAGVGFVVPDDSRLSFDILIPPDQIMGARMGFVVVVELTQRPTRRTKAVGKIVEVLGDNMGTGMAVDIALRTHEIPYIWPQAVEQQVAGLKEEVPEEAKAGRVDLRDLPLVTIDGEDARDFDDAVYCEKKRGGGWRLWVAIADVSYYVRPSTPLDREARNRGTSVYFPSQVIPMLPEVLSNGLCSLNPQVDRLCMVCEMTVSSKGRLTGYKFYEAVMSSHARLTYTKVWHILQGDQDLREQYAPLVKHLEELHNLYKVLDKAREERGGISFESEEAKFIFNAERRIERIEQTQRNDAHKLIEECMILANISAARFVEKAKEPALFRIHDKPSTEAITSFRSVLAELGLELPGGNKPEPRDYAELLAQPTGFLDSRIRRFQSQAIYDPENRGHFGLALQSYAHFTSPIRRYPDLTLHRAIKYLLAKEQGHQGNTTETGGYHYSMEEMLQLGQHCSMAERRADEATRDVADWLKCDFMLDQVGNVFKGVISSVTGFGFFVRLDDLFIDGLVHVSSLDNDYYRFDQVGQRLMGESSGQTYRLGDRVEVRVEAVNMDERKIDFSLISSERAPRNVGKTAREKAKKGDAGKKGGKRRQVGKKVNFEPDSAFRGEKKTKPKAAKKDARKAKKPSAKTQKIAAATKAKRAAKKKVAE

For the next data set, the target named is T2, RNase R (full-length) (Escherichia coli BL21(DE3), UniProt P21499 1-813).
T2 sequence: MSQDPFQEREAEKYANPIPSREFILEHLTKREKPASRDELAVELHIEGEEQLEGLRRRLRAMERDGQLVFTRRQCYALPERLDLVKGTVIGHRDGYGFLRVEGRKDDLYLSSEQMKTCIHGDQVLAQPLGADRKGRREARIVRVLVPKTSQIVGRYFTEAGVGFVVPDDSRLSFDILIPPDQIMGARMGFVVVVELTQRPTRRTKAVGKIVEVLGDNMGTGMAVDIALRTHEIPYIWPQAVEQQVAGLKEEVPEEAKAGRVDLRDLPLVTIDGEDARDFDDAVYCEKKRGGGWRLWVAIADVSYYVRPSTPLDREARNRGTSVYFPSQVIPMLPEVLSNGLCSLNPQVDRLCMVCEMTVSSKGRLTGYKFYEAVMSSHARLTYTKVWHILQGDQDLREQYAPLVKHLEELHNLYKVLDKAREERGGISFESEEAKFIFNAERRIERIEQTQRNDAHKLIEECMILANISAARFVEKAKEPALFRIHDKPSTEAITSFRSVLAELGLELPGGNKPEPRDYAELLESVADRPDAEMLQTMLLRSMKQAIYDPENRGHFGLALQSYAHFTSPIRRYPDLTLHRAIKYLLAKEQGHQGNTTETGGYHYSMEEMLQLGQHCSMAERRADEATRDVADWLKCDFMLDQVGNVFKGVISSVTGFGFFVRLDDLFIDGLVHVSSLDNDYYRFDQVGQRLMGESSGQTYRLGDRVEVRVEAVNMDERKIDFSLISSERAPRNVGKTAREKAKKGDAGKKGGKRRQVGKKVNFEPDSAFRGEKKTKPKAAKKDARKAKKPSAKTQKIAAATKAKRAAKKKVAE

The next data set concerns the target T3, RNase R ΔHTH-K (Escherichia coli BL21(DE3), UniProt P21499 87-725).
T3 sequence: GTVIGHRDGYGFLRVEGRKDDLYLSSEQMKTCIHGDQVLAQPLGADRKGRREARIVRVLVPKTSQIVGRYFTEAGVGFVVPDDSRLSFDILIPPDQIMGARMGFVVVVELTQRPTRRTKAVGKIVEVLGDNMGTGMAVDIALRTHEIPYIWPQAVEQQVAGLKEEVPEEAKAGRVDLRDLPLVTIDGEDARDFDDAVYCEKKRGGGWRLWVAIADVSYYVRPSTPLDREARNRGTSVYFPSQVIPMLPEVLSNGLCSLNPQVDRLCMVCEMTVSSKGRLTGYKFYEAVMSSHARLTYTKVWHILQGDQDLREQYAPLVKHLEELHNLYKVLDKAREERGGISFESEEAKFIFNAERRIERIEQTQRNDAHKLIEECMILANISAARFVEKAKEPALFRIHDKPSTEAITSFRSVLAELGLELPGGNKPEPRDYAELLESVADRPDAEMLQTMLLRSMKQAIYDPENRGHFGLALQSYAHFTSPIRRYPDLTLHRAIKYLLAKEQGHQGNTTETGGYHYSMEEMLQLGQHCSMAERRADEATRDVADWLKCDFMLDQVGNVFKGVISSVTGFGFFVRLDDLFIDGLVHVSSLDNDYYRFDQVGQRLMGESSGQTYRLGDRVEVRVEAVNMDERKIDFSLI

The target in another data set is T4, RNase R Δ3H (Escherichia coli BL21(DE3), UniProt P21499 1-813, del487-545).
T4 sequence: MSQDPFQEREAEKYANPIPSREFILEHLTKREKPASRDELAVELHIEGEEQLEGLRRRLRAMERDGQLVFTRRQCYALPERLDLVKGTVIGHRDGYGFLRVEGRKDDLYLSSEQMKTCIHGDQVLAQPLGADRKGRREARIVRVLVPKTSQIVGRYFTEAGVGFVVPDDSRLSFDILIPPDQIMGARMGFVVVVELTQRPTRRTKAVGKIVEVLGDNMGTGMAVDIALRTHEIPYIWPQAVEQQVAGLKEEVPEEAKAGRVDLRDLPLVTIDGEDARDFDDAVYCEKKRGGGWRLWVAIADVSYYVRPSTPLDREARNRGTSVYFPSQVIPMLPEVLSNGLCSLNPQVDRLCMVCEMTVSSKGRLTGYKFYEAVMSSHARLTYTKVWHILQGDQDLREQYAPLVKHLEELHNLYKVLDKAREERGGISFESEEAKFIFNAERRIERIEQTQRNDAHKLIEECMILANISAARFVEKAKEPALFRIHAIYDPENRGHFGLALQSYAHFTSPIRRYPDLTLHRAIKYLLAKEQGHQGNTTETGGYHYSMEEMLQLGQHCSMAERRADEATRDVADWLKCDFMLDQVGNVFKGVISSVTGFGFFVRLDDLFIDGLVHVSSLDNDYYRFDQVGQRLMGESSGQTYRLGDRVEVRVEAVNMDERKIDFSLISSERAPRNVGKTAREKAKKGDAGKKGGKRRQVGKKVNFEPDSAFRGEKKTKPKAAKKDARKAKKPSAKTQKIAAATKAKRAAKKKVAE

By Kd is commonly meant a measure of binding affinity in units of concentration. In the case of AAAAAAAAAAAAAAAAAAAAAAAAAAAAAA (ssRNA) [Cy3-poly(A)30 ssRNA], the Kd with RNase R 1H was 9.9 ± 1 nM; with RNase R (full-length), 11.2 ± 1.2 nM; with RNase R ΔHTH-K it was 8.6 ± 1 nM; in the data set with RNase R Δ3H, 23.8 ± 2.6 nM.
